Several values for one entry are separate records, joined by “and”; a condition that tells them apart may be missing. Equal entries are not always repeated.
B1: PKL-Nluc fusion, nanoluciferase fused to the N-terminus of PKL, recombinant (enzyme)
chain: not shown
notes: Pyruvate kinase, liver isoform (PKL), human; The bands were detected by in-gel luminescence of the Nluc part; source: recombinant, expressed and purified; not shown: Nluc, N-terminal, kept
B2: liver isoform of pyruvate kinase (PKL), wild type, recombinant (enzyme)
chain: not shown
notes: Pyruvate kinase, liver isoform (PKL), human; The same molecule is used for the native PAGE protein and for the crystallised protein; Construct details are probably in the Supporting Information; also called PKLwt; source: recombinant

Target: the molecule itself
Experiment: native gel or EMSA; recombinant protein incubated with tracer IV (0.15-10 uM) or DMSO at room temperature, native PAGE on 3%-12% bis-tris gel; bands seen by in-gel luminescence (Nluc substrate), colloidal blue staining and western blot; no FBP

Protein	stoichiometry N
B1	4 and 2
B2	4
